From patent US20160185837A1 (Medimmune Limited, priority 2013, published 2016)

Key:
PK by Fc Detection = assay: PK by Fc Detection
Experimental: Table printed on a drawing sheet, FIG. 3A-C
Title: PK by Fc Detection
(§1) Circles: IV injection of 1 mg/kg, squares: subcutaneous injection of 1 mg/kg. Pharmacokinetic parameters Cmax, bioavailability (F %) and half-life T1/2 are compared in panel C.
(§2) Circles: IV injection of 1 mg/kg, squares: subcutaneous injection of 1 mg/kg. Pharmacokinetic parameters Cmax, bioavailability (F %) and half life T112 are compared in panel F.
First reader's note: Panel C of FIG. 3A-C; the title 'PK by Fc Detection' is printed over the whole sheet, including plot panels A and B.

PK by Activity = assay: PK by Activity
Experimental: Table printed on a drawing sheet, FIG. 3D-F
as §1, §2
First reader's note: Panel F of FIG. 3D-F; the pharmacokinetic parameters were derived from plasma levels measured by activity (sheet heading 'PK by Activity').

blood glucose = assay: Oral glucose tolerance test (OGTT) in mouse model; format: in vivo, C57 male mice
Experimental: The effect of IP088 on glycemic control in a mouse model was carried out as follows. Twenty-one (21) male C57 male mice (11-12 weeks old) were purchased from Taconic, Denmark and acclimatized for 3 weeks before experimentation. Throughout the acclimatization period the animals are offered ad libitum chow and tap water. Mice were single housed one week prior to the study. On day 1 of the study animals were randomized into 4 groups based on body weight (n=5-6 per group), and were administered the following compounds subcutaneously four hours (IP088, IP040, and GLP1a-Fc) or two hours (liraglutide) prior to each oral glucose tolerance test:
Group 6: Liraglutide (GLP-1 analog, Novo Nordisk) 0.2 mg/kg S.C.
Group 7: GLP1a-Fc (GLP-1 agonist) 1 mg/kg S.C.
Group 8: IP088 1 mg/kg S.C.
Oral glucose tolerance tests (OGTT) were performed on days 0 and 2, both after a 4-hour fast. […] Blood glucose was measured from tail vein blood before glucose (at t=−240, −120 and 0 min, baseline) and after glucose administration at t=15, 30, 60 and 120 min. Blood samples (tail vein) were collected into […] heparinized glass capillary tubes and immediately suspended in buffer (0.5 ml of glucose/lactate system solution (EKF-diagnostics, Germany) and analyzed for glucose on the test day using a BIOSEN c-Line glucose meter (EKF-diagnostics, Germany) according to manufacturer's instructions.

hGIPr (C3) = molecular target: T1, hGIPr (C3) (Homo sapiens, UniProt P48546); assay: BSA-cAMP assay, second human GIPr cell line hGIPr (C3); format: cell-based; conditions: Batch 1, second hGIPr cell line, read-out: hGIPr (C3) cAMP activity EC50
T1 construct: expressed in transfected cells
T1 sequence (P48546 22-466): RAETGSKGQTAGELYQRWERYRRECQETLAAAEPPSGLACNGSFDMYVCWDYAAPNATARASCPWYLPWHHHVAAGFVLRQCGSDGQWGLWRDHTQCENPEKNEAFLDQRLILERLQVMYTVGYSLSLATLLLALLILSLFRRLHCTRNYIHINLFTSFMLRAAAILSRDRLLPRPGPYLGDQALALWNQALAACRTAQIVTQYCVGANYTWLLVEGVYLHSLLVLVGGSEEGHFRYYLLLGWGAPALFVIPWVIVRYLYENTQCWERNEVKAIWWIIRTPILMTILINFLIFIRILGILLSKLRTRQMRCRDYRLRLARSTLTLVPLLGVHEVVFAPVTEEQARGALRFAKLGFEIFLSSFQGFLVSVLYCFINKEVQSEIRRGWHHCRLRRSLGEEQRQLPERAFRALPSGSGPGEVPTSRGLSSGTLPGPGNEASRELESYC
Experimental: For human GIPr, two different lines were used, shown as “hGIPr” and “hGIPr (C3)” in Table 11. Peptide activation of these various receptors results in downstream production of cAMP second messenger that can be measured in a functional activity assay.
One basic cAMP assays was performed, differing in the medium used for the assay, the “BSA-cAMP assay”:
BSA-based assay medium: 0.1% bovine serum albumin (BSA) in
Hanks Balanced Salt Solution (GIBCO or Sigma), containing 0.5 mM IBMX (Sigma #17018);
In certain aspects, the assay can also be carried out in medium supplemented with serum albumin that corresponds to the receptor being tested, e.g., human serum albumin for testing cAMP activity at hGIPr or hGLP-1r, rat serum albumin for testing cAMP activity at rGIPr or rGLP-1r, and so on. […]
cAMP levels were measured using a commercially available cAMP dynamic 2 HTRF kit (Cisbio, Cat #62AM4PEJ), following the two step protocol as per manufacturer's recommendations. […] Plates were incubated at room temperature for one hour and then read on an Envision (Perkin Elmer) using excitation wavelength of 320 nm and emission wavelengths of 620 nm & 665 nm. Data was transformed to % Delta F as described in manufacturer's guidelines and then transformed to percent activation of maximal native agonist response and analysed by 4-parameter logistic fit to determine EC50 values. […]

B1: IP088: Fc fusion, IgG1-TM, SEQ ID NO:105; agonist peptide YSEGTFTSDYSKLLEEEAVRLFIEWLVKGP (SEQ ID NO:15) (protein)
chain: YSEGTFTSDYSKLLEEEAVRLFIEWLVKGPAAAGGSGSTASSGSGSATGGGGAATHTCPPCPAPEF
modifications: also: Fc fusion, IgG1-TM
With B1 the “Cmax” value (PK by Fc Detection) was 9800 ng/mL, the “F (%)” value (PK by Fc Detection) was 67% and the “t½” value (PK by Fc Detection) was 71 h. For the same molecule, the “Cmax” value (PK by Activity) was 98 nM, the “F (%)” value (PK by Activity) was 72% and the “t½” value (PK by Activity) was 24 h. For the same molecule, the “glycemic control in OGTT compared with GLP1a-Fc, in words” value (blood glucose; 1 mg/kg S.C. each, OGTT days 0 and 2) was “superior to GLP1a-Fc at glycemic control” and the “glucose lowering effect in OGTT, in words” value (blood glucose; 1 mg/kg S.C. four hours before OGTT, days 0 and 2, 2 g/kg oral glucose) was “excellent glucose lowering effects”.

B2: IP367 (protein)
chain: YSEGTFTSDYRILKERQAIDEFIAWLLKGGAAAGGSGSTASSGSGSATGGGGAATHTCPPC
In the case of B2, the EC50 (hGIPr (C3)) is reported as 13 nM.
